Reference: the supplement of paper PMC5998384

How the values were obtained:
[1] = system: HeLa Kyoto; experiment: solubility in G1/S (NP-40 vs SDS abundance) (log2 ratio); higher = more soluble; settings: cell cycle stage: G1/S
[2] = system: HeLa Kyoto; experiment: melting temperature (median over replicates), in situ; higher = more thermally stable
[3] = system: HeLa Kyoto; experiment: solubility change mitosis vs G1/S (difference of NP-40 vs SDS log2 ratios) (log2 ratio difference); higher = more soluble in mitosis
[4] = system: HeLa Kyoto; experiment: thermal stability score vs G1/S (z-score of summed log2 fold changes over temperatures); higher = more thermally stable than in G1/S
[5] = cell cycle stage: early G1 (4.5 h after nocodazole release)
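For melting temperature (median over replicates), in situ in this document: HeLa Kyoto cells synchronized by double thymidine or nocodazole block, proteins quantified by TMT10plex mass spectrometry, three independent biological replicates.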
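For solubility change mitosis vs G1/S (difference of NP-40 vs SDS log2 ratios) in this document: synchronized HeLa Kyoto cells (double thymidine block for G1/S, nocodazole release for mitosis), protein amounts in NP-40 versus SDS lysates quantified by mass spectrometry, three biological replicates.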
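For solubility in G1/S (NP-40 vs SDS abundance) in this document: HeLa Kyoto cells arrested at G1/S by double thymidine block, proteins quantified by TMT10plex mass spectrometry in mild NP-40 versus SDS extracts, three biological replicates.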
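For thermal stability score vs G1/S (z-score of summed log2 fold changes over temperatures) in this document: synchronized HeLa Kyoto cells, proteins quantified by TMT10plex mass spectrometry, three biological replicates, mitosis taken 0.5 h after nocodazole release, G1/S directly after double thymidine block.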

Row | Substance | solubility in G1/S (log2) [1] | melting temperature ([2]; cell cycle stage: G1/S) [°C] | melting temperature ([2]; cell cycle stage: mitosis) [°C] | solubility change mitosis (log2) [3] | thermal stability score [4, 5] | thermal stability score ([4]; cell cycle stage: mitosis)
1 | MSFVAGVIRRLDETVVNRIAAGEVIQRPANAIKEMIENCLDAKSTSIQVIVKEGGLKLIQIQDNGTGIRKEDLDIVCERFTTSKLQSFEDLASISTYGFRGEALASISHVAHVTITTKTADGKCAYRASYSDGKLKAPPKPCAGNQGTQITVEDLFYNIATRRKALKNPSEEYGKILEVVGRYSVHNAGISFSVKKQGETVADVRTLPNASTVDNIRSIFGNAVSRELIEIGCEDKTLAFKMNGYISNANYSVKKCIFLLFINHRLVESTSLRKAIETVYAAYLPKNTHPFLYLSLEISPQNVDVNVHPTKHEVHFLHEESILERVQQHIESKLLGSNSSRMYFTQTLLPGLAGPSGEMVKSTTSLTSSSTSGSSDKVYAHQMVRTDSREQKLDAFLQPLSKPLSSQPQAIVTEDKTDISSGRARQQDEEMLELPAPAEVAAKNQSLEGDTTKGTSEMSEKRGPTSSNPRKRHREDSDVEMVEDDSRKEMTAACTPRRRIINLTSVLSLQEEINEQGHEVLREMLHNHSFVGCVNPQWALAQHQTKLYLLNTTKLSEELFYQILIYDFANFGVLRLSEPAPLFDLAMLALDSPESGWTEEDGPKEGLAEYIVEFLKKKAEMLADYFSLEIDEEGNLIGLPLLIDNYVPPLEGLPIFILRLATEVNWDEEKECFESLSKECAMFYSIRKQYISEESTLSGQQSEVPGSIPNSWKWTVEHIVYKALRSHILPPKHFTEDGNILQLANLPDLYKVFERC [MLH1] | -0.0862 | 46.3 | 48.8 | -0.21 | 3.37 | 5.51
2 | MQMSYAIRCAFYQLLLAALMLVAMLQLLYLSLLSGLHGQEEQDQYFEFFPPSPRSVDQVKAQLRTALASGGVLDASGDYRVYRGLLKTTMDPNDVILATHASVDNLLHLSGLLERWEGPLSVSVFAATKEEAQLATVLAYALSSHCPDMRARVAMHLVCPSRYEAAVPDPREPGEFALLRSCQEVFDKLARVAQPGINYALGTNVSYPNNLLRNLAREGANYALVIDVDMVPSEGLWRGLREMLDQSNQWGGTALVVPAFEIRRARRMPMNKNELVQLYQVGEVRPFYYGLCTPCQAPTNYSRWVNLPEESLLRPAYVVPWQDPWEPFYVAGGKVPTFDERFRQYGFNRISQACELHVAGFDFEVLNEGFLVHKGFKEALKFHPQKEAENQHNKILYRQFKQELKAKYPNSPRRC [B4GAT1] | 0.284 | 53.7 | 54.1 | 0.00523 | 0.621 | 0.329
3 | MADEDLIFRLEGVDGGQSPRAGHDGDSDGDSDDEEGYFICPITDDPSSNQNVNSKVNKYYSNLTKSERYSSSGSPANSFHFKEAWKHAIQKAKHMPDPWAEFHLEDIATERATRHRYNAVTGEWLDDEVLIKMASQPFGRGAMRECFRTKKLSNFLHAQQWKGASNYVAKRYIEPVDRDVYFEDVRLQMEAKLWGEEYNRHKPPKQVDIMQMCIIELKDRPGKPLFHLEHYIEGKYIKYNSNSGFVRDDNIRLTPQAFSHFTFERSGHQLIVVDIQGVGDLYTDPQIHTETGTDFGDGNLGVRGMALFFYSHACNRICESMGLAPFDLSPRERDAVNQNTKLLQSAKTILRGTEEKCGSPQVRTLSGSRPPLLRPLSENSGDENMSDVTFDSLPSSPSSATPHSQKLDHLHWPVFSDLDNMASRDHDHLDNHRESENSGDSGYPSEKRGELDDPEPREHGHSYSNRKYESDEDSLGSSGRVCVEKWNLLNSSRLHLPRASAVALEVQRLNALDLEKKIGKSILGKVHLAMVRYHEGGRFCEKGEEWDQESAVFHLEHAANLGELEAIVGLGLMYSQLPHHILADVSLKETEENKTKGFDYLLKAAEAGDRQSMILVARAFDSGQNLSPDRCQDWLEALHWYNTALEMTDCDEGGEYDGMQDEPRYMMLAREAEMLFTGGYGLEKDPQRSGDLYTQAAEAAMEAMKGRLANQYYQKAEEAWAQMEE [EEF2K] | 0.0328 | 47.7 | 48.4 | -0.158 | 0.84 | 1.21
4 | MAAAVVLAAGLRAARRAVAATGVRGGQVRGAAGVTDGNEVAKAQQATPGGAAPTIFSRILDKSLPADILYEDQQCLVFRDVAPQAPVHFLVIPKKPIPRISQAEEEDQQLLGHLLLVAKQTAKAEGLGDGYRLVINDGKLGAQSVYHLHIHVLGGRQLQWPPG [HINT2] | 0.565 | 54.9 | 54.9 | -0.0342 | -0.929 | -2.12
5 | MEGSGEQPGPQPQHPGDHRIRDGDFVVLKREDVFKAVQVQRRKKVTFEKQWFYLDNVIGHSYGTAFEVTSGGSLQPKKKREEPTAETKEAGTDNRNIVDDGKSQKLTQDDIKALKDKGIKGEEIVQQLIENSTTFRDKTEFAQDKYIKKKKKKYEAIITVVKPSTRILSIMYYAREPGKINHMRYDTLAQMLTLGNIRAGNKMIVMETCAGLVLGAMMERMGGFGSIIQLYPGGGPVRAATACFGFPKSFLSGLYEFPLNKVDSLLHGTFSAKMLSSEPKDSALVEESNGTLEEKQASEQENEDSMAEAPESNHPEDQETMETISQDPEHKGPKERGSKKDYIQEKQRRQEEQRKRHLEAAALLSERNADGLIVASRFHPTPLLLSLLDFVAPSRPFVVYCQYKEPLLECYTKLRERGGVINLRLSETWLRNYQVLPDRSHPKLLMSGGGGYLLSGFTVAMDNLKADTSLKSNASTLESHETEEPAAKKRKCPESDS [TRMT6] | 0.0845 | 54.9 | 56.2 | 0.019 | 2.23 | 0.0663
6 | MPLRLDIKRKLTARSDRVKSVDLHPTEPWMLASLYNGSVCVWNHETQTLVKTFEVCDLPVRAAKFVARKNWVVTGADDMQIRVFNYNTLERVHMFEAHSDYIRCIAVHPTQPFILTSSDDMLIKLWDWDKKWSCSQVFEGHTHYVMQIVINPKDNNQFASASLDRTIKVWQLGSSSPNFTLEGHEKGVNCIDYYSGGDKPYLISGADDRLVKIWDYQNKTCVQTLEGHAQNVSCASFHPELPIIITGSEDGTVRIWHSSTYRLESTLNYGMERVWCVASLRGSNNVALGYDEGSIIVKLGREEPAMSMDANGKIIWAKHSEVQQANLKAMGDAEIKDGERLPLAVKDMGSCEIYPQTIQHNPNGRFVVVCGDGEYIIYTAMALRNKSFGSAQEFAWAHDSSEYAIRESNSIVKIFKNFKEKKSFKPDFGAESIYGGFLLGVRSVNGLAFYDWDNTELIRRIEIQPKHIFWSDSGELVCIATEESFFILKYLSEKVLAAQETHEGVTEDGIEDAFEVLGEIQEIVKTGLWVGDCFIYTSSVNRLNYYVGGEIVTIAHLDRTMYLLGYIPKDNRLYLGDKELNIISYSLLVSVLEYQTAVMRRDFSMADKVLPTIPKEQRTRVAHFLEKQGFKQQALTVSTDPEHRFELALQLGELKIAYQLAVEAESEQKWKQLAELAISKCQFGLAQECLHHAQDYGGLLLLATASGNANMVNKLAEGAERDGKNNVAFMSYFLQGKVDACLELLIRTGRLPEAAFLARTYLPSQVSRVVKLWRENLSKVNQKAAESLADPTEYENLFPGLKEAFVVEEWVKETHADLWPAKQYPLVTPNEERNVMEEGKDFQPSRSTAQQELDGKPASPTPVIVASHTANKEEKSLLELEVDLDNLELEDIDTTDINLDEDILDD [COPB2] | -0.298 | 51.7 | 51.3 | -0.0942 | -0.168 | -0.888
7 | GNL2 | -2.3 | 51.2 | 52.7 | 1.08 | 4.89 | 6.37
8 | MNEEYDVIVLGTGLTECILSGIMSVNGKKVLHMDRNPYYGGESASITPLEDLYKRFKIPGSPPESMGRGRDWNVDLIPKFLMANGQLVKMLLYTEVTRYLDFKVTEGSFVYKGGKIYKVPSTEAEALASSLMGLFEKRRFRKFLVYVANFDEKDPRTFEGIDPKKTTMRDVYKKFDLGQDVIDFTGHALALYRTDDYLDQPCYETINRIKLYSESLARYGKSPYLYPLYGLGELPQGFARLSAIYGGTYMLNKPIEEIIVQNGKVIGVKSEGEIARCKQLICDPSYVKDRVEKVGQVIRVICILSHPIKNTNDANSCQIIIPQNQVNRKSDIYVCMISFAHNVAAQGKYIAIVSTTVETKEPEKEIRPALELLEPIEQKFVSISDLLVPKDLGTESQIFISRTYDATTHFETTCDDIKNIYKRMTGSEFDFEEMKRKKNDIYGED [GDI2] | 0.218 | 55.2 | 54.7 | -0.174 | -1.03 | -0.13
9 | MGHPPLLPLLLLLHTCVPASWGLRCMQCKTNGDCRVEECALGQDLCRTTIVRLWEEGEELELVEKSCTHSEKTNRTLSYRTGLKITSLTEVVCGLDLCNQGNSGRAVTYSRSRYLECISCGSSDMSCERGRHQSLQCRSPEEQCLDVVTHWIQEGEEGRPKDDRHLRGCGYLPGCPGSNGFHNNDTFHFLKCCNTTKCNEGPILELENLPQNGRQCYSCKGNSTHGCSSEETFLIDCRGPMNQCLVATGTHEPKNQSYMVRGCATASMCQHAHLGDAFSMNHIDVSCCTKSGCNHPDLDVQYRSGAAPQPGPAHLSLTITLLMTARLWGGTLLWT [PLAUR] | 0.19 | 52.8 | 56.2 | -0.232 | 0.197 | 4.92
